According to IntAct's records for PubMed 18682563:

B1: Inner tegument protein (Human herpesvirus 1 (strain 17) (HHV-1)), P10221 (parent)
chain: MADRGLPSEAPVVTTSPAGPPSDGPMQRLLASLAGLRQPPTPTAETANGADDPAFLATAKLRAAMAAFLLSGTAIAPADARDCWRPLLEHLCALHRAHGLPETALLAENLPGLLVHRLVVALPEAPDQAFREMEVIKDTILAVTGSDTSHALDSAGLRTAAALGPVRVRQCAVEWIDRWQTVTKSCLAMSPRTSIEALGETSLKMAPVPLGQPSANLTTPAYSLLFPAPFVQEGLRFLALVSNRVTLFSAHLQRIDDATLTPLTRALFTLALVDEYLTTPERGAVVPPPLLAQFQHTVREIDPAIMIPPLEANKMVRSREEVRVSTALSRVSPRSACAPPGTLMARVRTDVAVFDPDVPFLSSSALAVFQPAVSSLLQLGEQPSAGAQQRLLALLQQTWTLIQNTNSPSVVINTLIDAGFTPSHCTHYLSALEGFLAAGVPARTPTGHGLGEVQQLFGCIALAGSNVFGLAREYGYYANYVKTFRRVQGASEHTHGRLCEAVGLSGGVLSQTLARIMGPAVPTEHLASLRRALVGEFETAERRFSSGQPSLLRETALIWIDVYGQTHWDITPTTPATPLSALLPVGQPSHAPSVHLAAATQIRFPALEGIHPNVLADPGFVPYVLALVVGDALRATCSAAYLPRPVEFALRVLAWARDFGLGYLPTVEGHRTKLGALITLLEPAARGGLGPTMQMADNIEQLLRELYVISRGAVEQLRPLVQLQPPPPPEVGTSLLLISMYALAARGVLQDLAERADPLIRQLEDAIVLLRLHMRTLSAFFECRFESDGRRLYAVVGDTPDRLGPWPPEAMGDAVSQYCSMYHDAKRALVASLASLRSVITETTAHLGVCDELAAQVSHEDNVLAVVRREIHGFLSVVSGIHARASKLLSGDQVPGFCFMGQFLARWRRLSACYQAARAAAGPEPVAEFVQELHDTWKGLQTERAVVVAPLVSSADQRAAAIREVMAHAPEDAPPQSPAADRVVLTSRRDLGAWGDYSLGPLGQTTAVPDSVDLSRQGLAVTLSMDWLLMNELLRVTDGVFRASAFRPLAGPESPRDLEVRDAGNSLPAPMPMDAQKPEAYGHGPRQADREGAPHSNTPVEDDEMIPEDTVAPPTDLPLTSYQ
partner: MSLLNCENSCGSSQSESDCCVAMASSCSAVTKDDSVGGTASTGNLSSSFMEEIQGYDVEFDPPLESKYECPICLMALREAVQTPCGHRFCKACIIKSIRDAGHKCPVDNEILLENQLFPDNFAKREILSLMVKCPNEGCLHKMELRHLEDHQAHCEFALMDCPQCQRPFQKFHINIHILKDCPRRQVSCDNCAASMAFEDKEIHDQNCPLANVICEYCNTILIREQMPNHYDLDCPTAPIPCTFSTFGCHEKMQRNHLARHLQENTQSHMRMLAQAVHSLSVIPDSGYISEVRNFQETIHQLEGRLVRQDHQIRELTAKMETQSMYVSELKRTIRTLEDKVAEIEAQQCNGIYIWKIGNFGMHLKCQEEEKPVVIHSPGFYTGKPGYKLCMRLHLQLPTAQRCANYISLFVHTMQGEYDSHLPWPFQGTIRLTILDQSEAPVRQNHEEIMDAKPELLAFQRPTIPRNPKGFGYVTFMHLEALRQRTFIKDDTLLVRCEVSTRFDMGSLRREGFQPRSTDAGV

Variants of: B1
Conditions: with traf6_human TRAF6, Q9Y4K3

Variant	effect of a mutation on the interaction
E1101A	decreasing interaction strength
